From patent US20160024207A1 (University of Texas, published 2016)

What was measured:
[1] = molecular target: recombinant human (rhu) EpCAM/Fc (960-EP, R&D Systems) (human) (UniProt P16422); experiment: flow cytometry of E. coli displaying scFv (APEx), EpCAM-Fc then fluorescent secondary antibody
[2] = molecular target: human EpCAM expressed on human carcinoma cells (PC3, MCF7) (human) (UniProt P16422); experiment: NIR flow cytometry, IRDye 800CW-labeled isotype control mAb on PC3 cells
[3] = molecular target: human EpCAM expressed on human carcinoma cells (PC3, MCF7) (human) (UniProt P16422); experiment: flow cytometry on MCF7 cells, mAb concentration 6.4 ng/ml, fluorescently labeled secondary antibody, 10,000 cells
[4] = molecular target: human EpCAM expressed on human carcinoma cells (PC3, MCF7) (human) (UniProt P16422); experiment: flow cytometry on MCF7 cells, mAb concentration 160 ng/ml, fluorescently labeled secondary antibody, 10,000 cells
[5] = molecular target: human EpCAM expressed on human carcinoma cells (PC3, MCF7) (human) (UniProt P16422); experiment: flow cytometry on MCF7 cells, mAb concentration 32 ng/ml, fluorescently labeled secondary antibody, 10,000 cells
[6] = molecular target: human EpCAM expressed on human carcinoma cells (PC3, MCF7) (human) (UniProt P16422); experiment: flow cytometry on PC3 cells, scFv then fluorophore-conjugated secondary antibody
[7] = molecular target: recombinant human (rhu) EpCAM/Fc (960-EP, R&D Systems) (human) (UniProt P16422); experiment: Biacore kinetic analysis of scFv
[8] = molecular target: T1, recombinant human (rhu) EpCAM/Fc (960-EP, R&D Systems) (human, UniProt P16422 24-265); experiment: SPR (Biacore T100), EpCAM/Fc captured on anti-human IgG Fc chip, Fab as analyte, 25 C
T1 construct: Bought fusion protein; not shown: Fc part
T1 sequence (looked up): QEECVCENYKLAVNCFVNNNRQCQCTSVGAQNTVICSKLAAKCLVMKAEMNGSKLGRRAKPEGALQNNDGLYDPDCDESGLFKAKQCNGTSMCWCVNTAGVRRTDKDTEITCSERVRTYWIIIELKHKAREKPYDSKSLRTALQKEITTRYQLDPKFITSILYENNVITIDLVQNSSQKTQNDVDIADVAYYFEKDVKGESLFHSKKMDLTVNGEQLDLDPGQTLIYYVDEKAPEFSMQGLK
Procedure: (§1) In order to discriminate between monovalent and multivalent interactions on quantitative SPR measurements of KD, the binding affinities of the Fab fragments of mAbs were measured using SPR and a Biacore T100 instrument (GE Healthcare). Two flow cells of a CM5 chip were coated with goat anti-human IgG (Fc-specific) (Jackson ImmunoResearch) to approximately 8000 resonance units (RU) with an NHS/EDC Amine Coupling Kit BR-1000-50 (GE Healthcare). All measurements were made at 25° C. using HBS-EP+(10 mM HEPES, 150 mM NaCl, 3 mM EDTA, 0.05% v/v Tween 20, pH 7.4) as running buffer. EpCAM/Fc ligand (R&D Systems) was diluted in HBS-EP+ to 0.5 μg/ml and applied to the coated chip surface. Fab fragments were then tested at five different molar concentrations starting at 50 nM after performing a two-fold dilution series. Flow cells were regenerated with 100 mM phosphoric acid. All samples were applied in duplicate.

[9] = molecular target: T1, recombinant human (rhu) EpCAM/Fc …; experiment: SPR, ratio of Fab KD values, reference mAb 9601 Fab
Procedure: as §1

[10] = molecular target: T1, recombinant human (rhu) EpCAM/Fc …; experiment: SPR (Biacore T100), EpCAM/Fc captured, Fab as analyte; Fab fragment, not IgG
Procedure: as §1

[11] = molecular target: T2, human EpCAM expressed on human carcinoma cells (PC3, MCF7) (human, UniProt P16422 24-314); experiment: flow cytometry on PC3 cells, 5 µg/ml mAb, PE-labeled anti-mouse IgG
T2 construct: whole, on cells; also called native EpCAM; surface expressed EpCAM
T2 sequence (looked up): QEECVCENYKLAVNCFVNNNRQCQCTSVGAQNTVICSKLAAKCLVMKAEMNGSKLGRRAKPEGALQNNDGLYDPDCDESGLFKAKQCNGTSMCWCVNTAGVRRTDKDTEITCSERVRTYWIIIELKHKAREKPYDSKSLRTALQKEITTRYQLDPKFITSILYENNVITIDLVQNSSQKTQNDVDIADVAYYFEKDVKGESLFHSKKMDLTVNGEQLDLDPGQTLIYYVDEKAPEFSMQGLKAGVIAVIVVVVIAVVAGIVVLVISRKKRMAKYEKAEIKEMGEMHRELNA
Procedure: PC3 cells (human prostate adenocarcinoma line, CRL1435™, ATCC, Manassas, Va.), grown to 80%-100% confluency in DMEM with 10% FBS, were treated with Trypsin-EDTA and resuspended in PBS containing 2% bovine serum albumin (BSA). One million cells per well were labeled with 5 μg/ml of mAb in a 200-μl volume and incubated on ice for 20 min. After washing with PBS-BSA, phycoerythrin (PE)-conjugated donkey F(ab′)2 anti-mouse IgG (Jackson ImmunoResearch, West Grove, Pa.) at 5 μg per sample was added for an additional 20-min incubation. Cells were washed again with PBS-BSA and fixed in 2% paraformaldehyde prior to analyzing (10,000 events) on a BD FACSCalibur Flow Cytometer (BD Biosciences, San Jose, Calif.). Analyses of mean fluorescence intensities (MFI) were performed using WinMDI2.9 software.

[12] = molecular target: T3, murine EpCAM on mouse 4T1 mammary carcinoma cells (mouse, UniProt Q99JW5 24-315); experiment: flow cytometry on mouse 4T1 cells, PE-labeled anti-mouse IgG
T3 construct: whole, on cells; also called mouse EpCAM
T3 sequence (looked up): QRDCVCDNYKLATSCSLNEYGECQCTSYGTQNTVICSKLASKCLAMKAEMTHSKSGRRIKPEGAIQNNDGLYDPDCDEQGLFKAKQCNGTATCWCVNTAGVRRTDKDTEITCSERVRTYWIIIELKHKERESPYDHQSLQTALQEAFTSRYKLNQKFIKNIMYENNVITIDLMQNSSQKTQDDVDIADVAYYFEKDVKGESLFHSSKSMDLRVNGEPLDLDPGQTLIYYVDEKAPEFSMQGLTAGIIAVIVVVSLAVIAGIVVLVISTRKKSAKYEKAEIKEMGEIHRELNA
Procedure: To determine whether mAbs specific for human EpCAM cross-react with murine EpCAM, the human cell line MCF7 (as described above) and 4T1 cells (mouse mammary carcinoma, CRL2539™, ATCC) were used. Hybridoma cells were grown and mAbs purified as above-described. Rat anti-mouse EpCAM, mAb G8.8 (Developmental Studies Hybridoma Bank, University of Iowa, Iowa City, Iowa) was utilized as a positive control for detection of EpCAM on the surface of 4T1 cells. Following incubation (20 min, on ice) with mAb, cells were washed with PBS-BSA and either DyLIGHT-488 conjugated donkey anti-rat IgG (Jackson ImmunoResearch) or PE-conjugated donkey F(ab′) 2 anti-mouse IgG (Jackson ImmunoResearch) was added at 5 μg per sample and incubated for an additional 20 min for detecting cells bound by rat anti-mouse or mouse anti-human EpCAM mAb, respectively. Cells were washed again with PBS-BSA and fixed in 2% paraformaldehyde prior to analyzing (10,000 events) on a BD FACSCalibur Flow Cytometer (BD Biosciences) using WinMDI2.9 software.

[13] = molecular target: T1, recombinant human (rhu) EpCAM/Fc …; experiment: Biacore kinetic analysis of scFv

An MFI [1] of 13 MFI was found for “control scFv with no affinity to EpCAM (displayed on E. coli)” in this work.

A Biological Activity, % (percentage of PC3 cells stained) [2] of 0.7% and an MFI [2] of 149 MFI units were found for “commercial IgG2b isotype control mAb (BD Pharmingen) (antibody)” in this work.

A Biological Activity, % (percentage of PC3 cells stained) [2] of 3.2% and an MFI [2] of 125 MFI units were found for “in-house IgG1 isotype control mAb 69 (antibody)” in this work.

An MFI [3] of 38, an MFI [4] of 321 and an MFI [5] of 106 were found for “Veridex anti-EpCAM mAb VU-1D9 (antibody)” in this work.

B1: anti-EpCAM scFv 7 (scFv, V domains shown, not shown: small tags and cut ends)
VH: QVQLQQSGPELEKPGGSVKISCKASGYSFTGYNMNWVKQSNGKSLEWIGNIDPYNGGSGFDQKFKGKATLTVDTSSSTAYMHLKSLTSEDSAVYYCAREYGSNFDYWGQGTTLTVSS
VL: DIQMTQSTSSLSASLGDRVTISCRASQDIGTYLNWYQQQADGTFKLLIYYTSRLHSGIPSRFSGSGSGTDFSLTISNLGQEDIATYFCQQGNTLPWTFGGGTKLEIK
modifications: linker not given
An MFI [6] of 380 MFI, a Kd [7] of 4.14 nM and an MFI [1] of 170 MFI were found for B1 in this work.

B2: Fab fragment of mAb 7 (Fab, V domains shown)
VH: QVQLQQSGPELEKPGGSVKISCKASGYSFTGYNMNWVKQSNGKSLEWIGNIDPYNGGSGFDQKFKGKATLTVDTSSSTAYMHLKSLTSEDSAVYYCAREYGSNFDYWGQGTTLTVSS
VL: DIQMTQSTSSLSASLGDRVTISCRASQDIGTYLNWYQQQADGTFKLLIYYTSRLHSGIPSRFSGSGSGTDFSLTISNLGQEDIATYFCQQGNTLPWTFGGGTKLEIK
notes: Fab made by ficin digestion of the mouse IgG1 mAb 7; also called 7 Fab; mAb 7 Fab fragment
A Kd [8] of 2.3 nM, a koff [8] of 0.00099 s⁻¹ and a kon [8] of 430000 M⁻¹ s⁻¹ were found for B2 in this work. The “fold increase in affinity above mAb 9601” value [9] was 7 fold.

B3: Fab fragment of mAb 153 (Fab, V domains shown)
VH: QVQLQQSGAELVKPGTSVKLSCKASGYNFTSYWINWVKLRPGQGLEWIGDIYPGSGNSHYNEKFKSKATLTVDTSSSTAYMQLSSLASGDSALYYCARNYYGSSPFPMDYWGQGTSVTVSS
VL: DIVMTQSPSSLIVTAGEKVTMSCKSSQSLLNSGNQKNYLTWYQQKPGQPPKLLIYWASTRESGVPDRFTGSGSGTDFTLTLNSAQAEDLAVYYCQNDYTYPLTFGAGTKLEIK
A Kd [8] of 0.53 nM, a koff [8] of 0.00012 s⁻¹ and a kon [8] of 220000 M⁻¹ s⁻¹ were found for B3 in this work. For the same molecule, the “fold increase in affinity above mAb 9601” value [9] was 28 fold and the Kd [10] was 0.54 nM.

B4: anti-EpCAM monoclonal antibody 7 (antibody, V domains shown)
VH: QVQLQQSGPELEKPGGSVKISCKASGYSFTGYNMNWVKQSNGKSLEWIGNIDPYNGGSGFDQKFKGKATLTVDTSSSTAYMHLKSLTSEDSAVYYCAREYGSNFDYWGQGTTLTVSS
VL: DIQMTQSTSSLSASLGDRVTISCRASQDIGTYLNWYQQQADGTFKLLIYYTSRLHSGIPSRFSGSGSGTDFSLTISNLGQEDIATYFCQQGNTLPWTFGGGTKLEIK
notes: In-house mouse IgG1 from hybridoma; IRDye 800CW (and DOTA) labeled in the NIR flow cytometry; also called mAb 7
For B4, the “MFI fold increase relative to PE-conjugated secondary antibody alone” value [11] was 3.9 fold and the binding result [12] was “no binding”.

B5: anti-EpCAM monoclonal antibody 153 (antibody, V domains shown)
VH: QVQLQQSGAELVKPGTSVKLSCKASGYNFTSYWINWVKLRPGQGLEWIGDIYPGSGNSHYNEKFKSKATLTVDTSSSTAYMQLSSLASGDSALYYCARNYYGSSPFPMDYWGQGTSVTVSS
VL: DIVMTQSPSSLIVTAGEKVTMSCKSSQSLLNSGNQKNYLTWYQQKPGQPPKLLIYWASTRESGVPDRFTGSGSGTDFTLTLNSAQAEDLAVYYCQNDYTYPLTFGAGTKLEIK
notes: In-house mouse IgG1 from hybridoma; In the NIR flow cytometry it carried IRDye 800CW (and DOTA)
With B5 the “MFI fold increase relative to PE-conjugated secondary antibody alone” value [11] was 4.8 fold and the binding result [12] was “no binding”.

B6: anti-EpCAM scFv 153 (scFv, V domains shown)
VH: QVQLQQSGAELVKPGTSVKLSCKASGYNFTSYWINWVKLRPGQGLEWIGDIYPGSGNSHYNEKFKSKATLTVDTSSSTAYMQLSSLASGDSALYYCARNYYGSSPFPMDYWGQGTSVTVSS
VL: DIVMTQSPSSLIVTAGEKVTMSCKSSQSLLNSGNQKNYLTWYQQKPGQPPKLLIYWASTRESGVPDRFTGSGSGTDFTLTLNSAQAEDLAVYYCQNDYTYPLTFGAGTKLEIK
A Kd [13] of 0.21 nM was found for B6 in this work.
